What was measured:
[1] = test system: HeLa Kyoto; test: solubility in G1/S (NP-40 vs SDS abundance) (log2 ratio); higher = more soluble; conditions: cell cycle stage: G1/S
[2] = test system: HeLa Kyoto; test: solubility change mitosis vs G1/S (difference of NP-40 vs SDS log2 ratios) (log2 ratio difference); higher = more soluble in mitosis
[3] = test system: HeLa Kyoto; test: melting temperature (median over replicates), in situ; higher = more thermally stable
[4] = test system: HeLa Kyoto; test: thermal stability score vs G1/S (z-score of summed log2 fold changes over temperatures); higher = more thermally stable than in G1/S
[5] = cell cycle stage: early G1 (4.5 h after nocodazole release)
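For melting temperature (median over replicates), in situ in this document: HeLa Kyoto cells synchronized by double thymidine or nocodazole block, proteins quantified by TMT10plex mass spectrometry, three independent biological replicates.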
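For solubility change mitosis vs G1/S (difference of NP-40 vs SDS log2 ratios) in this document: synchronized HeLa Kyoto cells (double thymidine block for G1/S, nocodazole release for mitosis), protein amounts in NP-40 versus SDS lysates quantified by mass spectrometry, three biological replicates.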
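For solubility in G1/S (NP-40 vs SDS abundance) in this document: HeLa Kyoto cells arrested at G1/S by double thymidine block, proteins quantified by TMT10plex mass spectrometry in mild NP-40 versus SDS extracts, three biological replicates.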
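For thermal stability score vs G1/S (z-score of summed log2 fold changes over temperatures) in this document: synchronized HeLa Kyoto cells, proteins quantified by TMT10plex mass spectrometry, three biological replicates, mitosis taken 0.5 h after nocodazole release, G1/S directly after double thymidine block.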

MARK2, sequence (chain, as listed by the source): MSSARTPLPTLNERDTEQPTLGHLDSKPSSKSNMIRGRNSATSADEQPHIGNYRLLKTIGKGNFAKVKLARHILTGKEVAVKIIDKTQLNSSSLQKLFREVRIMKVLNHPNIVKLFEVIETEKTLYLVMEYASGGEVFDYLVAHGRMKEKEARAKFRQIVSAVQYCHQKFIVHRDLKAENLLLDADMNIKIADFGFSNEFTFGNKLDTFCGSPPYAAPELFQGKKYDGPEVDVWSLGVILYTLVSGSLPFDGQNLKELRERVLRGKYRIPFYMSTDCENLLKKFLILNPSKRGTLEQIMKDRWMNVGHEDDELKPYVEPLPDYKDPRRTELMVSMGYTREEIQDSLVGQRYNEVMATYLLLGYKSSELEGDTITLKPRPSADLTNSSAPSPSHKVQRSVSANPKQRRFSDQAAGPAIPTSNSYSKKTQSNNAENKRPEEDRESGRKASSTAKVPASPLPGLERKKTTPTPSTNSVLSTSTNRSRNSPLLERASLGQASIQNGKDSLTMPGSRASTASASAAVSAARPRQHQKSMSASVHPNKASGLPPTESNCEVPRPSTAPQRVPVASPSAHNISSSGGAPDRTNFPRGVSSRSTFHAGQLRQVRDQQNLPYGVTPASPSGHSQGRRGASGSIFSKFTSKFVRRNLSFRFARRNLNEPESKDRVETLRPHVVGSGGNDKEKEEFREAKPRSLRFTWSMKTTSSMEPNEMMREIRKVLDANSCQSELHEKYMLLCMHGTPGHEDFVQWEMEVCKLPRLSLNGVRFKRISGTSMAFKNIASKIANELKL

Question: For “MARGLGAPHWVAVGLLTWATLGLLVAGLGGHDDLHDDLQEDFHGHSHRHSHEDFHHGHSHAHGHGHTHESIWHGHTHDHDHGHSHEDLHHGHSHGYSHESLYHRGHGHDHEHSHGGYGESGAPGIKQDLDAVTLWAYALGATVLISAAPFFVLFLIPVESNSPRHRSLLQILLSFASGGLLGDAFLHLIPHALEPHSHHTLEQPGHGHSHSGQGPILSVGLWVLSGIVAFLVVEKFVRHVKGGHGHSHGHGHAHSHTRGSHGHGRQERSTKEKQSSEEEEKETRGVQKRRGGSTVPKDGPVRPQNAEEEKRGLDLRVSGYLNLAADLAHNFTDGLAIGASFRGGRGLGILTTMTVLLHEVPHEVGDFAILVQSGCSKKQAMRLQLLTAVGALAGTACALLTEGGAVGSEIAGGAGPGWVLPFTAGGFIYVATVSVLPELLREASPLQSLLEVLGLLGGVIMMVLIAHLE [SLC39A7]”, which “solubility in G1/S (log2)” value [1] is on record?
Answer: -0.392

Question: And the “solubility change mitosis (log2)” value [2]?
Answer: -0.00492

Question: And the melting temperature ([3]; cell cycle stage: G1/S)?
Answer: 59.2 °C

Question: What about the melting temperature ([3]; cell cycle stage: mitosis) of the same substance?
Answer: 57.1 °C

Question: And the thermal stability score [4, 5]?
Answer: -0.93

Question: What about the thermal stability score ([4]; cell cycle stage: mitosis) of the same substance?
Answer: -2.25

Question: What does the source list for MARK2?
Answer: solubility in G1/S (log2) [1]: -0.0826; solubility change mitosis (log2) [2]: 0.0431; melting temperature ([3]; cell cycle stage: G1/S): 49.6 °C; melting temperature ([3]; cell cycle stage: mitosis): 48.7 °C; thermal stability score [4, 5]: 0.513; thermal stability score ([4]; cell cycle stage: mitosis): 0.569

Question: Which “solubility in G1/S (log2)” value [1] does the source give for “MARKRAAGGEPRGRELRSQKSKAKSKARREEEEEDAFEDEKPPKKSLLSKVSQGKRKRGCSHPGGSADGPAKKKVAKVTVKSENLKVIKDEALSDGDDLRDFPSDLKKAHHLKRGATMNEDSNEEEEESENDWEEVEELSEPVLGDVRESTAFSRSLLPVKPVEIEIETPEQAKTRERSEKIKLEFETYLRRAMKRFNKGVHEDTHKVHLLCLLANGFYRNNICSQPDLHAIGLSIIPARFTRVLPRDVDTYYLSNLVKWFIGTFTVNAELSASEQDNLQTTLERRFAIYSARDDEELVHIFLLILRALQLLTRLVLSLQPIPLKSATAKGKKPSKERLTADPGGSSETSSQVLENHTKPKTSKGTKQEETFAKGTCRPSAKGKRNKGGRKKRSKPSSSEEDEGPGDKQEKATQRRPHGRERRVASRVSYKEESGSDEAGSGSDFELSSGEASDPSDEDSEPGPPKQRKAPAPQRTKAGSKSASRTHRGSHRKDPSLPAASSSSSSSKRGKKMCSDGEKAEKRSIAGIDQWLEVFCEQEEKWVCVDCVHGVVGQPLTCYKYATKPMTYVVGIDSDGWVRDVTQRYDPVWMTVTRKCRVDAEWWAETLRPYQSPFMDREKKEDLEFQAKHMDQPLPTAIGLYKNHPLYALKRHLLKYEAIYPETAAILGYCRGEAVYSRDCVHTLHSRDTWLKKARVVRLGEVPYKMVKGFSNRARKARLAEPQLREENDLGLFGYWQTEEYQPPVAVDGKVPRNEFGNVYLFLPSMMPIGCVQLNLPNLHRVARKLDIDCVQAITGFDFHGGYSHPVTDGYIVCEEFKDVLLTAWENEQAVIERKEKEKKEKRALGNWKLLAKGLLIRERLKRRYGPKSEAAAPHTDAGGGLSSDEEEGTSSQAEAARILAASWPQNREDEEKQKLKGGPKKTKREKKAAASHLFPFEQL [XPC]” here?
Answer: -0.919

Question: And the “solubility change mitosis (log2)” value [2]?
Answer: 0.43

Question: What about the melting temperature ([3]; cell cycle stage: G1/S) of the same substance?
Answer: 47.7 °C

Question: And the melting temperature ([3]; cell cycle stage: mitosis)?
Answer: 48.4 °C

Question: What about the thermal stability score [4, 5] of the same substance?
Answer: 0.959

Question: What about the thermal stability score ([4]; cell cycle stage: mitosis) of the same substance?
Answer: 2.74

Question: “MARPLVPSSQKALLLELKGLQEEPVEGFRVTLVDEGDLYNWEVAIFGPPNTYYEGGYFKARLKFPIDYPYSPPAFRFLTKMWHPNIYETGDVCISILHPPVDDPQSGELPSERWNPTQNVRTILLSVISLLNEPNTFSPANVDASVMYRKWKESKGKDREYTDIIRKQVLGTKVDAERDGVKVPTTLAEYCVKTKAPAPDEGSDLFYDDYYEDGEVEEEADSCFGDDEDDSGTEES [CDC34]” was tested. Which “solubility in G1/S (log2)” value [1] did it give?
Answer: 0.3

Question: What about the “solubility change mitosis (log2)” value [2] of the same substance?
Answer: -0.0905

Question: And the melting temperature ([3]; cell cycle stage: G1/S)?
Answer: 48.8 °C

Question: And the melting temperature ([3]; cell cycle stage: mitosis)?
Answer: 49.1 °C

Question: And the thermal stability score [4, 5]?
Answer: 0.555

Question: And the thermal stability score ([4]; cell cycle stage: mitosis)?
Answer: 2.54

Question: With “MARVLKAAAANAVGLFSRLQAPIPTVRASSTSQPLDQVTGSVWNLGRLNHVAIAVPDLEKAAAFYKNILGAQVSEAVPLPEHGVSVVFVNLGNTKMELLHPLGRDSPIAGFLQKNKAGGMHHICIEVDNINAAVMDLKKKKIRSLSEEVKIGAHGKPVIFLHPKDCGGVLVELEQA [MCEE]” as the substance, how does the “solubility in G1/S (log2)” value [1] read?
Answer: 0.471

Question: What about the “solubility change mitosis (log2)” value [2] of the same substance?
Answer: 0.128

Question: What about the melting temperature ([3]; cell cycle stage: G1/S) of the same substance?
Answer: 57.8 °C

Question: And the melting temperature ([3]; cell cycle stage: mitosis)?
Answer: 56.1 °C

Question: What about the thermal stability score [4, 5] of the same substance?
Answer: -0.379

Question: And the thermal stability score ([4]; cell cycle stage: mitosis)?
Answer: -2.18

Question: What does the source list for “MASAGDTQAGPRDAADQNFDYMFKLLLIGNSSVGKTSFLFRYADDSFTPAFVSTVGIDFKVKTVYRHDKRIKLQIWDTAGQERYRTITTAYYRGAMGFLLMYDIANQESFAAVQDWATQIKTYSWDNAQVILVGNKCDLEDERVVPAEDGRRLADDLGFEFFEASAKENINVKQVFERLVDVICEKMNESLEPSSSSGSNGKGPAVGDAPAPQPSSCSC [RAB3D]”?
Answer: solubility in G1/S (log2) [1]: 0.0512; solubility change mitosis (log2) [2]: -0.109; melting temperature ([3]; cell cycle stage: G1/S): 57.2 °C; melting temperature ([3]; cell cycle stage: mitosis): 57.6 °C; thermal stability score [4, 5]: -1.66; thermal stability score ([4]; cell cycle stage: mitosis): -1.58

Question: How did the “solubility in G1/S (log2)” value [1] turn out when “MASASGAMAKHEQILVLDPPTDLKFKGPFTDVVTTNLKLRNPSDRKVCFKVKTTAPRRYCVRPNSGIIDPGSTVTVSVMLQPFDYDPNEKSKHKFMVQTIFAPPNTSDMEAVWKEAKPDELMDSKLRCVFEMPNENDKLNDMEPSKAVPLNASKQDGPMPKPHSVSLNDTETRKLMEECKRLQGEMMKLSEENRHLRDEGLRLRKVAHSDKPGSTSTASFRDNVTSPLPSLLVVIAAIFIGFFLGKFIL [VAPA]” was run?
Answer: 0.735

Question: And the “solubility change mitosis (log2)” value [2]?
Answer: 0.0815

Question: What about the melting temperature ([3]; cell cycle stage: G1/S) of the same substance?
Answer: 54.1 °C

Question: And the melting temperature ([3]; cell cycle stage: mitosis)?
Answer: 54.5 °C

Question: What about the thermal stability score [4, 5] of the same substance?
Answer: -1.27

Question: And the thermal stability score ([4]; cell cycle stage: mitosis)?
Answer: -1.24
